In article PMC7272049 (2020) one finds EC50 data, which are given here for 4 molecules.

Some targets named below: mPD-L1 G119D mCherry (mouse, UniProt Q9EP73 19-290, G119D); mPD-L1 K124A mCherry (mouse, UniProt Q9EP73 19-290, K124A); mPD-L1 R125A mCherry (mouse, UniProt Q9EP73 19-290, R125A); mPD-L1 D49R mCherry (mouse, UniProt Q9EP73 19-290, D49R); mPD-L1 G120D mCherry (mouse, UniProt Q9EP73 19-290, G120D); mPD-L1 Y56A mCherry (mouse, UniProt Q9EP73 19-290, Y56A); WT mPD-L1 mCherry (mouse, UniProt Q9EP73 19-290); D28R (Mus musculus); mPD-L1 D122A mCherry (mouse, UniProt Q9EP73 19-290, D122A); mPD-L1 Y123R mCherry (mouse, UniProt Q9EP73 19-290, Y123R).

Holding throughout (experiment): FACS

Sequence of D28R (Mus musculus) (chain, as listed by the source D28R): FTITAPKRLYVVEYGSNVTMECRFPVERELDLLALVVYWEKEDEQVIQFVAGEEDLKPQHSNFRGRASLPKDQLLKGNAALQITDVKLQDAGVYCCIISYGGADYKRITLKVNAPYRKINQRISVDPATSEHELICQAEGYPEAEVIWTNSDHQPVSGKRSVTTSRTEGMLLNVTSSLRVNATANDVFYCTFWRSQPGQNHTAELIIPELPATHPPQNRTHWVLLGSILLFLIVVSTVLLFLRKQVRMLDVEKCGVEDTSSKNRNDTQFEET
Sequence of mPD-L1 K124A mCherry (Q9EP73 19-290 K124A): as the sequence (chain, as listed by the source D28R) above, with R8D, K106A counted along it
Sequence of mPD-L1 R125A mCherry (Q9EP73 19-290 R125A): as the sequence (chain, as listed by the source D28R) above, with R8D, R107A counted along it
Sequence of mPD-L1 Y56A mCherry (Q9EP73 19-290 Y56A): as the sequence (chain, as listed by the source D28R) above, with R8D, Y38A counted along it
Sequence of mPD-L1 Y123R mCherry (Q9EP73 19-290 Y123R): as the sequence (chain, as listed by the source D28R) above, with R8D, Y105R counted along it
Sequence of mPD-L1 D122A mCherry (Q9EP73 19-290 D122A): as the sequence (chain, as listed by the source D28R) above, with R8D, D104A counted along it
Sequence of mPD-L1 D49R mCherry (Q9EP73 19-290 D49R): as the sequence (chain, as listed by the source D28R) above, with R8D, D31R counted along it
Sequence of mPD-L1 G120D mCherry (Q9EP73 19-290 G120D): as the sequence (chain, as listed by the source D28R) above, with R8D, G102D counted along it
Sequence of mPD-L1 G119D mCherry (Q9EP73 19-290 G119D): as the sequence (chain, as listed by the source D28R) above, with R8D, G101D counted along it
Sequence of WT mPD-L1 mCherry (Q9EP73 19-290): as the sequence (chain, as listed by the source D28R) above, with R8D counted along it

B1: mPD-1 mIgG2a (Fc fusion)
chain: LEVPNGPWRSLTFYPAWLTVSEGANATFTCSLSNWSEDLMLNWNRLSPSNQTEKQAAFCNGLSQPVQDARFQIIQLPNRHDFHMNILDTRRNDSGIYLCGAISLHPKAKIEESPGAELVVTERILETSTRYPSPSPKPEGRFQGM
Take B1: the EC50 in the test with mPD-L1 G119D mCherry amounted to 2 nM; with mPD-L1 K124A mCherry, 42.9 nM; with mPD-L1 R125A mCherry, 38.8 nM; with mPD-L1 D49R mCherry, 1.8 nM; with mPD-L1 G120D mCherry it was 2.5 nM; with mPD-L1 Y56A mCherry, 1.9 nM. In the test with WT mPD-L1 mCherry, this molecule registered an EC50 of 1.8 nM.

B2: mPD-1 mIgG2a (Fc fusion)
chain: B1 chain
modifications: Cell-surface full-length mPD-L1 with a C-terminal mCherry (left out); limits are not given, so the mature chain 19-290 is used. The paper prints D28R, but residue 28 of Q9EP73 is Tyr. The only nearby Asp is D26, which lies at the PD-1 interface, so D28R is read as D26R. The paper's other PD-L1 numbers match the precursor numbering.
Regarding B2, in the test with D28R, the response was half-maximal at 2.6 nM (EC50).

B3: mB7-1 mIgG2a (Fc fusion)
chain: VDEQLSKSVKDKVLLPCRYNSPHEDESEDRIYWQKHDKVVLSVIAGKLKVWPEYKNRTLYDNTTYSLIILGLVLSDRGTYSCVVQKKERGTYEVKHLALVKLSIKADFSTPNITESGNPSADTKRITCFASGGFPKPRFSWLENGRELPGINTTISQDPESELYTISSQLDFNTTRNHTIKCLIKYGDAHVSEDFTWEKPPEDPPDSKN
Consider B3, for which the EC50 stood at 54.9 nM with mPD-L1 K124A mCherry, 68.2 nM with mPD-L1 D122A mCherry, 20.2 nM with mPD-L1 R125A mCherry and 7.7 nM in the test with mPD-L1 Y123R mCherry.

B4: mB7-1 mIgG2a (Fc fusion)
chain: B3 chain
modifications: Cell-surface full-length mPD-L1 with a C-terminal mCherry (left out); limits are not given, so the mature chain 19-290 is used. The paper prints D28R, but residue 28 of Q9EP73 is Tyr. The only nearby Asp is D26, which lies at the PD-1 interface, so D28R is read as D26R. The paper's other PD-L1 numbers match the precursor numbering.
As for B4, in the test with D28R, the EC50 is 18.8 nM.
